According to the supplement of paper PMC10724198:
± gives the standard deviation of the averaged measurements.

System: Saccharomyces cerevisiae
Assay: protein stability index of tFT-peptide fusion (C-terminal peptide) (PSI (0-1 scale)); higher = more stable (slower turnover)
Settings: genetic background: wild type; temperature: 30 C
Experimental: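 Multiplexed protein stability (MPS) profiling in S. cerevisiae. Random 12-aa peptides (tFT-X12 library) are fused to the C-terminus of a sfGFP-mCherry tandem fluorescent timer, after mCherry and a GGGS linker. Cells are FACS-sorted into 8 mCherry/sfGFP bins and deep-sequenced. The protein stability index (PSI) is the read-weighted bin average, scaled from 0 (unstable) to 1 (stable). Only peptides with >10 reads are reported; cells were grown at 30 °C in SC-His with glucose.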
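Also: PSI is a weighted mean of sequencing reads over stability bins, variants kept only with over 10 reads, mCherry proximal and sfGFP distal, peptide attached via GGGS linker.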

In order of falling protein stability index:
1. KCKRGYSAVREL  0.936 ± 0.09
2. ICLGCFEEYEGV  0.812 ± 0.077
3. IRKKIRKKTIYK  0.798 ± 0.034
4. IESASRSTTGGI  0.77 ± 0.14
5. HRREEDQRPYSR  0.768 ± 0.021
6. KAVSRQSEATPV  0.76 ± 0.093
7. ISSIRKNSKREE  0.755 ± 0.031
8. INVKRSNAQRKG  0.754 ± 0.058
9. HPFASRSRFTPR  0.753 ± 0.063
10. HALFPRAPSPPW  0.7513 ± 0.0055
11. IDFNWESSTMNI  0.7438 ± 0.0058
12. IRQPIPTKVHRL  0.744 ± 0.045
13. ISCTASRCRLTR  0.744 ± 0.025
14. HEEPEVPEIQHV  0.743 ± 0.063
15. HWHLIKIKLKEK  0.742 ± 0.043
16. HAVRQNDTYKHG  0.74 ± 0.087
17. IVMGVGCYTGRP  0.74 ± 0.036
18. ILSRTEGHCLII  0.739 ± 0.074
19. ISFGSVFSGFFH  0.7354 ± 0.0014
20. HSTSLLPSGSWF  0.734 ± 0.016
21. HPAPNPGFHFDR  0.733 ± 0.065
22. HPAAPPPPPPPR  0.732 ± 0.066
23. HHRVLRCNNPFR  0.731 ± 0.12
24. HHTDSLRPTAPH  0.73 ± 0.054
25. IRKPRRHRTVET  0.73 ± 0.057
26. GWSVDGVVLGAP  0.728 ± 0.046
27. IYNGMLREEKSL  0.728 ± 0.017
28. KARLRQRKSTSK  0.728 ± 0.0084
29. IKKKVKNQKENQ  0.726 ± 0.013
30. IIRINSKMGSRK  0.725 ± 0.0078
31. ILSFPYSQYFMS  0.7242 ± 0.0052
32. HQSSHTRMARSL  0.723 ± 0.013
33. HPHVPAPRVPHP  0.721 ± 0.047
34. IYHCRKSYKTRQ  0.7205 ± 0.0042
35. GWWWGGGGAWSG  0.718 ± 0.071
36. HFSRNYINENVS  0.716 ± 0.04
37. HLPPPPRITVVP  0.716 ± 0.073
38. IKPTRKKTISTR  0.715 ± 0.095
39. IAGMFSLKFGVP  0.714 ± 0.082
40. ICSQLVVAWEGV  0.714
41. IHRTSVALFFFP  0.713 ± 0.034
42. IKNEKKNKRKKK  0.71337 ± 0.00014
43. IKKANRKTKPMK  0.712 ± 0.078
44. KAYGSCRSLAWF  0.712 ± 0.061
45. HPPPPAPTPSSR  0.711 ± 0.04
46. ISGEISTLLKTR  0.71 ± 0.081
47. HRIHRSLLTGGR  0.708 ± 0.021
48. IIPEPTKFSRQR  0.7059 ± 0.0026
49. HSCLVRSDPPPS  0.704 ± 0.12
50. IGRGAPPGWVGA  0.704 ± 0.02
51. IPGVPPPRFSIR  0.704 ± 0.034
52. IHLCPPPALRES  0.703 ± 0.0083
53. ISSGRRFRAGAE  0.703 ± 0.046
54. HPGLRLENVNPQ  0.702 ± 0.014
55. IFPSIPTLLPPS  0.701 ± 0.041
56. IWAKLGFRLQYS  0.701 ± 0.13
57. GWVHGEDMAVFG  0.7 ± 0.0049
58. HSPSHPGSPHAC  0.7 ± 0.033
59. IEPTFDGSLCLG  0.7 ± 0.0094
60. ILPYTDTVCYRY  0.699 ± 0.047
61. KEKRLKATTQYE  0.699 ± 0.015
62. IMGGGGEGGINC  0.698 ± 0.019
63. HNKSGEKKKKEA  0.697 ± 0.0076
64. HVSPSPYPPGYP  0.697 ± 0.026
65. HWGRGGRSGGDR  0.697 ± 0.025
66. IIEESTRPSPLG  0.697 ± 0.059
67. IKIILLEKQGSK  0.697 ± 0.033
68. ILCASDLNRPCL  0.697 ± 0.04
69. INKNKKKEKLTK  0.697 ± 0.015
70. ISCSDNMLLLFD  0.697 ± 0.01
71. KENYGIKTKDRK  0.696 ± 0.075
72. IRNSDNNKNHPR  0.693 ± 0.042
73. ITGSRVQVYIGR  0.693 ± 0.021
74. HPPPPPRSLPLP  0.692 ± 0.08
75. GYGWGVGGGFGR  0.691 ± 0.019
76. HGKNLALNEKCW  0.691 ± 0.034
77. ILVSVLRFVRNR  0.691 ± 0.029
78. IRKKNKEKIKNQ  0.691 ± 0.25
79. ITLSCFPRPFPL  0.691 ± 0.02
80. KEQKIMSKKIEK  0.68978 ± 0.00026
81. GWVVSGIFGRCC  0.689 ± 0.013
82. GYLEGMVYRESD  0.689 ± 0.025
83. KELRYKKDRKKK  0.689 ± 0.026
84. IAKLLHSPSTFT  0.688 ± 0.014
85. IDGGSAWSAVSL  0.687 ± 0.018
86. HCSGGFRCPPLV  0.6862 ± 0.0046
87. HLPPPPSPSPPP  0.686 ± 0.012
88. IAPLMSSILYPI  0.685 ± 0.025
89. HGSYYSAVWGKG  0.684 ± 0.096
90. IFPFKDDVPFVS  0.684 ± 0.0015
91. IPLPMLLHLPRA  0.684 ± 0.019
92. GWVGGCGGGRGI  0.683 ± 0.0092
93. HPPSSSHTQPPR  0.683 ± 0.014
94. IRGWVRCRVARG  0.683 ± 0.021
95. IYCGDRGITGGV  0.683 ± 0.019
96. IPRHLGTRVVPI  0.682 ± 0.072
97. HSPSKLSSSTAT  0.681 ± 0.032
98. KEEIRNKIKTIK  0.6809 ± 0.0063
99. HPDPSPPTKPPP  0.68 ± 0.031
100. IINKKANQKKKE  0.68 ± 0.032
101. ISVRAVDFGIAG  0.68 ± 0.033
102. IVGAVMMGGRTM  0.68 ± 0.013
103. IYCWGVSFGWLR  0.68 ± 0.021
104. HVDGGAVLLEGQ  0.67888 ± 0.00049
105. HPAPVPSAPSDA  0.678 ± 0.054
106. IMRLCSSNRICG  0.678 ± 0.027
107. IVGEDRRRTAFR  0.678 ± 0.026
108. KAGVWLWGGGGG  0.678 ± 0.069
109. HLYARHCPPPNR  0.677 ± 0.052
110. HPHPPQSTNPYT  0.677 ± 0.058
111. IEATHKIDRCKD  0.676 ± 0.0086
112. KDGSKMQCNIKK  0.6763 ± 0.0014
113. HDEGLEGLTVVF  0.675 ± 0.019
114. IKRRKRNRKRGP  0.675 ± 0.041
115. ITKELKNIKQED  0.675 ± 0.0088
116. HRVRICWVPRSR  0.674 ± 0.027
117. HHSAPARLAFRY  0.673 ± 0.023
118. IQSRGQEKKKRK  0.673 ± 0.0075
119. HGKGLKEKRVEG  0.672 ± 0.041
120. HNPRTCRAPLSL  0.671 ± 0.0079
121. ILSDCWDQTIIE  0.671 ± 0.018
122. KCSKGSQGECHV  0.671 ± 0.05
123. IIQTTKPTRNIK  0.67 ± 0.022
124. ILFVTASSFSPP  0.67 ± 0.045
125. HQCVIVNFEKYD  0.669 ± 0.038
126. HSVEPARSSSAM  0.669 ± 0.07
127. ICIKKNTLTKTE  0.669 ± 0.012
128. HECVRGLSFVLV  0.668 ± 0.081
129. HKSRHSPKPPFT  0.6677 ± 0.0026
130. IFWGFSFRGGGG  0.667 ± 0.012
131. IRVAWTPRSYDL  0.664 ± 0.038
132. IGFHGALPGICL  0.663 ± 0.054
133. IIIVGSWSGGGG  0.663 ± 0.025
134. INVNNENLRGTE  0.663 ± 0.072
135. HFWGCCRRRCLK  0.66 ± 0.051
136. HPSPTAPPSASN  0.66 ± 0.022
137. GYSSPPLITIPH  0.659 ± 0.023
138. HPPTPPPPFPPP  0.659 ± 0.018
139. HPSAVPHPPDIV  0.659 ± 0.046
140. ITAATFCRRPAS  0.659 ± 0.12
141. HLTVSRIRLISK  0.658 ± 0.079
142. HPPPPPSPPGLP  0.6578 ± 0.0013
143. ILPCLSVRFFAP  0.658 ± 0.0068
144. KALGLRDHAILD  0.6583 ± 0.004
145. HTRSPVPPPPPS  0.657 ± 0.0019
146. IKKNRYYKRIII  0.657 ± 0.028
147. KEKKGNKTKKQN  0.657 ± 0.017
148. HVGGISSPLTPC  0.656 ± 0.025
149. IVAWQGRNLTPL  0.655 ± 0.12
150. GYLNCFGYVWGP  0.653 ± 0.04
151. HLQLCAPISTTD  0.652 ± 0.07
152. HRQTAKLKRIVI  0.651 ± 0.093
153. HWYLRCAVCEGV  0.651 ± 0.022
154. ILVGPTDFLPLE  0.651 ± 0.016
155. IWGGGKGRAGRH  0.651 ± 0.041
156. ISLGGNWHRVVT  0.649 ± 0.019
157. HVGYLIMVYRGR  0.646 ± 0.072
158. KALKNEYRYRAF  0.645 ± 0.073
159. INGSTENKSVKT  0.644 ± 0.012
160. KEDLGGMVSGGR  0.644 ± 0.009
161. ILVSRQGRGMRS  0.643 ± 0.013
162. IKTCANGPPHSM  0.64 ± 0.06
163. IPSLSLPLQTGS  0.64 ± 0.055
164. IKNEKKKEIELN  0.639 ± 0.0065
165. ILRLVGRGLVLL  0.639 ± 0.013
166. ITRAKGKPEISL  0.639 ± 0.12
167. HLPLLLFHPPLH  0.637 ± 0.0051
168. IGLRKGVGIMRP  0.637 ± 0.12
169. HYVQARMRSAVP  0.636 ± 0.091
170. HTANYILPLIHI  0.635 ± 0.044
171. IRPSQASSLRKT  0.634 ± 0.066
172. HISHPTGDVQTP  0.627 ± 0.083
173. KAPPDERGTGAQ  0.6273 ± 0.0018
174. HPNPYTTPGTPA  0.625 ± 0.0078
175. IRILDARYLSIS  0.62 ± 0.12
176. IQAERKKSYKDT  0.616 ± 0.075
177. KELENLHDNEGN  0.616 ± 0.019
178. HCPRPRPTCRPP  0.615 ± 0.1
179. ICHLTIFHLRRL  0.6151 ± 0.0037
180. ISFTDPSMGTLG  0.608 ± 0.11
181. GWVFCLFPVGGL  0.607 ± 0.051
182. IGSLCTPVCQCS  0.607 ± 0.019
183. ISALYVPGILSK  0.6 ± 0.018
184. HPTAILLVPLLL  0.597 ± 0.029
185. IGCFVEFLYGVW  0.593 ± 0.023
186. IPLCRVAGPKLK  0.591 ± 0.048
187. HRTLPPPPLTVP  0.579 ± 0.027
188. IFPNSGKIEVLA  0.574 ± 0.016
189. IFRASTGASYRT  0.5738 ± 0.0034
190. GWWLFRSRWWHE  0.573 ± 0.022
191. IPDPSPFTCPNV  0.557 ± 0.02
192. HSRSRAEPHHPP  0.555 ± 0.037
193. IILRSSLLPLLY  0.548 ± 0.013
194. IIFQWVVPTILQ  0.546 ± 0.019
195. IAAVQSGGRVAG  0.462 ± 0.057
196. IIAESPWFLIIR  0.444 ± 0.094
